The values that follow come from publication PMC4096120 (Science signaling, 2013).

The assay has as its target eGFP-DGKζ (fusion of enhanced green fluorescent protein and diacylglycerol kinase ζ) (UniProt Q80UP3 1-929). The assay is described as follows: co-IP.

Chain of eGFP-DGKζ (fusion of enhanced green fluorescent protein and diacylglycerol kinase ζ) (Q80UP3 whole entry, the tested form may be a part): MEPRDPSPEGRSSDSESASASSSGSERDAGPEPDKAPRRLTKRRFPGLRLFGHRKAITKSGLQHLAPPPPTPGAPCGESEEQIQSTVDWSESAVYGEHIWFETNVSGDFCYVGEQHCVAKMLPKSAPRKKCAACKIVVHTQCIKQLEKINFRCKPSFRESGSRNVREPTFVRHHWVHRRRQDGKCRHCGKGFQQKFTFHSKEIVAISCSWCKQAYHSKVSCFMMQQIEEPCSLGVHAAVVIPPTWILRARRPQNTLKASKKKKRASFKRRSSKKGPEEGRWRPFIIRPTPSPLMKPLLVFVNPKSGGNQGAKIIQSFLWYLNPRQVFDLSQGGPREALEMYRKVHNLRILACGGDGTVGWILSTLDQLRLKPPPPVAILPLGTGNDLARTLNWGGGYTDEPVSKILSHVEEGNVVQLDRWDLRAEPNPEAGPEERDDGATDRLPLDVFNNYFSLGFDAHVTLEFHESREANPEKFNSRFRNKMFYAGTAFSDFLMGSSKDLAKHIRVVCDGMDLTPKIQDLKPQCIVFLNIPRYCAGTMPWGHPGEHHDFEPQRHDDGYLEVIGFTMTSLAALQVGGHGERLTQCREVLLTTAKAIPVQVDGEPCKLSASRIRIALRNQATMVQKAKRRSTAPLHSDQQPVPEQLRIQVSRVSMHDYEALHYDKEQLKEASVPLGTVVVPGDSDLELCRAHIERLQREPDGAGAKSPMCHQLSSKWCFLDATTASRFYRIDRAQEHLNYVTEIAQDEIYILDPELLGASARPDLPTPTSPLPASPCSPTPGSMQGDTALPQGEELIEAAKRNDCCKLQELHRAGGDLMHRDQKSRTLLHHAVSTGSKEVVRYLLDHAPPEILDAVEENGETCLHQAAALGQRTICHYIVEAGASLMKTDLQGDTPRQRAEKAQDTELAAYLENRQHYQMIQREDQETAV

B1: RasGRP1 (Ras guanyl nucleotide-releasing protein 1), from pEF6-huRasGRP1-myc/His wild-type plasmid (natural protein, human, UniProt O95267 1-797, looked up)
chain: MGTLGKAREAPRKPSHGCRAASKARLEAKPANSPFPSHPSLAHITQFRMMVSLGHLAKGASLDDLIDSCIQSFDADGNLCRSNQLLQVMLTMHRIVISSAELLQKVITLYKDALAKNSPGLCLKICYFVRYWITEFWVMFKMDASLTDTMEEFQELVKAKGEELHCRLIDTTQINARDWSRKLTQRIKSNTSKKRKVSLLFDHLEPEELSEHLTYLEFKSFRRISFSDYQNYLVNSCVKENPTMERSIALCNGISQWVQLMVLSRPTPQLRAEVFIKFIQVAQKLHQLQNFNTLMAVIGGLCHSSISRLKETSSHVPHEINKVLGEMTELLSSSRNYDNYRRAYGECTDFKIPILGVHLKDLISLYEAMPDYLEDGKVNVHKLLALYNHISELVQLQEVAPPLEANKDLVHLLTLSLDLYYTEDEIYELSYAREPRNHRAPPLTPSKPPVVVDWASGVSPKPDPKTISKHVQRMVDSVFKNYDHDQDGYISQEEFEKIAASFPFSFCVMDKDREGLISRDEITAYFMRASSIYSKLGLGFPHNFQETTYLKPTFCDNCAGFLWGVIKQGYRCKDCGMNCHKQCKDLVVFECKKRAKNPVAPTENNTSVGPVSNLCSLGAKDLLHAPEEGPFTFPNGEAVEHGEESKDRTIMLMGVSSQKISLRLKRAVAHKATQTESQPWIGSEGPSGPFVLSSPRKTAQDTLYVLPSPTSPCPSPVLVRKRAFVKWENKDSLIKSKEELRHLRLPTYQELEQEINTLKADNDALKIQLKYAQKKIESLQLEKSNHVLAQMEQGDCS
For B1, the “fold binding relative to DGKα” value is ≤ 3 fold.
